Results published in patent US20030199671A1 (published 2003).
fluorescein = fluorescein label attached at the ε-amino group of the C-terminal lysine

How the values were obtained:
human IgG1 [1] = molecular target: T1, human IgG1 (human, UniProt P01857-1 1-330 = IgG part); test: fluorescence anisotropy; PBS
T1 construct: Calbiochem; human plasma IgG1 in anisotropy studies, myeloma-derived (cat. 400120) in batch/column studies; also called hIgG1
Description: (§1) Peptides were synthesized, fluorescein-labeled and HPLC purified as described above. Binding studies were performed using either a mixture of human plasma IgG isoforms (the Fc protein) or the individual human plasma IgG isoforms: IgG1, IgG2, IgG3, or IgG4.
(§2) Measurements were performed in 384-well microplates with 2 nM fluorescein-labeled peptide and a varied concentration of the IgG isoform target in a volume of 10 μl using a Tecan Polarion fluorescence polarization plate reader. The Fc binding buffer was 50 mM Tris-HCl, 200 mM NaCl, pH 8.0, 0.01% Tween 20. The IgG binding buffer was PBS with 0.01% Tween 20. The binding mixtures were equilibrated for 10 minutes in the microplate at 30° C. prior to performing the measurements.

human IgG2 [2] = molecular target: T2, human IgG2 (human, UniProt P01859-1 1-326 = IgG part); test: fluorescence anisotropy; PBS
T2 construct: Calbiochem; plasma IgG2 in anisotropy studies, myeloma-derived (cat. 400122) in batch/column studies; also called hIgG2
Description: as §1, §2

human IgG4 [3] = molecular target: T3, human IgG4 (human, UniProt P01861-1 1-327 = IgG part); test: fluorescence anisotropy; PBS
T3 construct: Calbiochem; plasma IgG4 in anisotropy studies, myeloma-derived (cat. 400126) in batch/column studies; also called hIgG4
Description: as §1, §2

[4] = molecular target: T4, Human IgG Fc fragment isolated from plasma (human); test: fluorescence anisotropy; 50 mM Tris-HCl, 200 mM NaCl, pH 8.0
T4 construct: domain: Fc fragment; also called human Fc; Fc protein
Description: as §1, §2

human IgG1 [5] = molecular target: T1, human IgG1; test: fluorescence anisotropy; pH 7.4 PBS
Description: (§3) All measurements were performed in 384 well microplates with 20 nM fluorescein-labeled peptide and various concentrations of the IgG isoform in a volume of between 10 and 20 μl using a Tecan Polarion fluorescence polarization plate reader. All binding buffers included 0.01% (v/v) Tween 20 to prevent peptide adsorption to the microplate. The binding mixture was equilibrated for 10 minutes in the microplate at 30° C. prior to performing the measurement.

human IgG2 [6] = molecular target: T2, human IgG2; test: fluorescence anisotropy; pH 7.4 PBS
Description: as §3

human IgG3 [7] = molecular target: T5, human IgG3 (human, UniProt P01860-1 1-377); test: fluorescence anisotropy; pH 7.4 PBS
T5 construct: Calbiochem; plasma IgG3 in anisotropy studies, myeloma-derived (cat. 400124) in batch/column studies; also called hIgG3
Description: as §3

human IgG1 [8] = molecular target: T1, human IgG1; test: fluorescence anisotropy; pH 9.3, 0.2 M NaCl
Description: as §3

human IgG2 [9] = molecular target: T2, human IgG2; test: fluorescence anisotropy; pH 7.4, 0.01 M Tris-HCl
Description: as §3

human IgG4 [10] = molecular target: T3, human IgG4; test: fluorescence anisotropy; pH 7.4, 0.01 M Tris-HCl
Description: as §3

human IgG1 [11] = molecular target: T1, human IgG1; test: fluorescence anisotropy; pH 5.7, 0.01 M Tris-acetate
Description: as §3

human IgG3 [12] = molecular target: T5, human IgG3; test: as above
Description: as §3

human IgG1 [13] = molecular target: T1, human IgG1; test: fluorescence anisotropy; pH 9.3, 0.01 M sodium bicarbonate
human IgG2 [14] = molecular target: T2, human IgG2; test: as above
[15] = molecular target: T4, Human IgG Fc fragment isolated from …; test: fluorescence anisotropy; pH 8.0, 0.05 M Tris-HCl, 0.2 M NaCl
Description: as §3

human IgG1 [16] = molecular target: T1, human IgG1; test: fluorescence anisotropy; pH 7.4 PBS (second value, unlabelled row)
Description: as §3

human IgG3 [17] = molecular target: T5, human IgG3; test: fluorescence anisotropy; PBS
Description: as §1, §2

human IgG1 [18] = molecular target: T1, human IgG1; test: batch binding, immobilised ligand
Description: (§4) IgG targets were diluted into 10 mM phosphate buffer containing 150 mM NaCl and 0.01% Tween 20, pH 7.2 (PBST) or 50 mM Tris buffer containing, 150 mM NaCl and 0.01% Tween-20, pH 7.5 (TBST). Batch (static) binding and elution studies were conducted in a 96-well assay filterplate (Millipore MultiScreen-HV, with 0.45 μm Durapore membrane, product no. MAHVN4510). The target was allowed to incubate with the resin for 1-1.5 hours with shaking at room temperature. Unbound target was collected by centrifugation of samples from the assay plate directly into a low-UV absorbing 96-well collection plate (Costar, product no. 3635 or Greiner, product no. 655801). The unbound target was then quantitated by reading the absorbance at 280 nm (normalized to 1 cm pathlength, 1.4 mg/ml A280 extinction coefficient) of the collection plate on a microplate spectrophotometer (Molecular Devices Corp., SPECTRAmax PLUS) against a buffer blank.
(§5) The percentage bound target was determined by subtracting the mass determined as unbound from the corresponding condition's control values (control non-filtered added directly to the collection plate and/or the negative control). The assay plate was washed (3×) with 200 μl of binding buffer by vacuum filtration followed by addition of 100 μl of various elution conditions (e.g.: 0.1 M sodium bicarbonate buffer, pH 8.5 and/or 0.1 M sodium citrate buffer, pH 4.0). After a 30-60 minute incubation with shaking at room temperature, the eluted target was collected by centrifugation of the assay plate into another collection plate and quantitated in a similar manner. Percent elution of total load was then determined to characterize elution recovery efficiency under various conditions.

human IgG2 [19] = molecular target: T2, human IgG2; test: batch binding, immobilised ligand
Description: as §4, §5

human IgG3 [20] = molecular target: T5, human IgG3; test: batch binding, immobilised ligand
Description: as §4, §5

human IgG4 [21] = molecular target: T3, human IgG4; test: batch binding, immobilised ligand
Description: as §4, §5

human IgG1 [22] = molecular target: T1, human IgG1; test: fluorescence anisotropy; pH 7.4, 0.01 M Tris-HCl
Description: as §3

human IgG3 [23] = molecular target: T5, human IgG3; test: fluorescence anisotropy; pH 7.4, 0.01 M Tris-HCl
Description: as §3

human IgG2 [24] = molecular target: T2, human IgG2; test: fluorescence anisotropy; pH 7.4 PBS (second value, unlabelled row)
Description: as §3

T2 sequence (P01859 other isoform, or with tags, fused parts or gaps): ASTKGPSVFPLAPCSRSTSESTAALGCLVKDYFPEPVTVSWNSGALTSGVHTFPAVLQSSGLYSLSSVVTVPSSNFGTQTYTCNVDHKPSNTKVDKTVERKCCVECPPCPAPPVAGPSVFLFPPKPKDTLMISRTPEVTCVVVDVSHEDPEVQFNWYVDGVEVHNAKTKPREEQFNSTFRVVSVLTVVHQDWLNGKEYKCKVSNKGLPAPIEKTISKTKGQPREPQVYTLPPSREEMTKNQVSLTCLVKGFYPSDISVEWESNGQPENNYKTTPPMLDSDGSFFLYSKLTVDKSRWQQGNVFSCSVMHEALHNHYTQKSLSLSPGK
T5 sequence (P01860 other isoform, or with tags, fused parts or gaps): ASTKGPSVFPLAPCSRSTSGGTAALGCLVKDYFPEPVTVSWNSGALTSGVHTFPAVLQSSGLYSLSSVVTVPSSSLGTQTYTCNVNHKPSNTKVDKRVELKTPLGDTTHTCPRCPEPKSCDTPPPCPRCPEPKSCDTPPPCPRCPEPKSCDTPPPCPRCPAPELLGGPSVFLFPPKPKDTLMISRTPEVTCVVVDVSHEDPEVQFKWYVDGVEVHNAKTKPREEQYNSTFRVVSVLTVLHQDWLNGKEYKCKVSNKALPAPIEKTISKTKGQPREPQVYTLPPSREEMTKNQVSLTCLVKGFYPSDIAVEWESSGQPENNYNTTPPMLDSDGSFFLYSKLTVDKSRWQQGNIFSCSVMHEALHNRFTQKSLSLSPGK
T1 sequence (P01857 other isoform, or with tags, fused parts or gaps): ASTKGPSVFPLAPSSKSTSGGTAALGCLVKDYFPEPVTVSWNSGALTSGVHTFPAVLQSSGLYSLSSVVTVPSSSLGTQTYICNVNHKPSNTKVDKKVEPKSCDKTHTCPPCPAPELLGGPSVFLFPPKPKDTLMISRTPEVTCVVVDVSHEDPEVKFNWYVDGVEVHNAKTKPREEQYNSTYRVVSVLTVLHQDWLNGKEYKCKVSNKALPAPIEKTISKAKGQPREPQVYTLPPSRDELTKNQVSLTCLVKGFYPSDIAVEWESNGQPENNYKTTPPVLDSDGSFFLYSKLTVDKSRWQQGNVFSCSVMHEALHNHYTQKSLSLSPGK
T3 sequence (P01861 other isoform, or with tags, fused parts or gaps): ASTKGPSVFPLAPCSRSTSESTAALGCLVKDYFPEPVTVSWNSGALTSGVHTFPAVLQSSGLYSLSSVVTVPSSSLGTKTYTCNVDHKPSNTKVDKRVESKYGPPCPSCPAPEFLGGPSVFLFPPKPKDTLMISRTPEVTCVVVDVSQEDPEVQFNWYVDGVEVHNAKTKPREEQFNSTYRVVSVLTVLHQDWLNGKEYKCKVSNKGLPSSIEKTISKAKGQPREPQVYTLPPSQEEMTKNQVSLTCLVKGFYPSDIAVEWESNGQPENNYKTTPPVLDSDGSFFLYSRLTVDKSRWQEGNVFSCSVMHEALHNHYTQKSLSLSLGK

Kd (human IgG1 [5]) | Kd (human IgG2 [6]) | Kd (human IgG3 [7]) | Kd (human IgG2 [9]) | Kd (human IgG4 [10]) | Kd (human IgG1 [11]) | Kd (human IgG3 [12]) | Kd [15] | Kd (human IgG1 [16]) | Binder | other results
 |  |  |  |  |  |  |  |  | Ac-GDRRACSRDWSGALVWCAGHEPGPEGGGK(fluorescein)-NH2 (not fully specified (bridges); printed as Ac-GDRRACSRDWSGALVWCAGHEPGPEGGGK-NH2; cysteine pairing not given here, also called fluoresceinated DX253) [DX301] | Kd (human IgG1 [1]): 3600 nM; Kd (human IgG2 [2]): 2300 nM; Kd (human IgG4 [3]): 9700 nM; Kd [4]: 6800 nM
140 nM | 1100 nM | 3000 nM | 2000 nM | 2900 nM | 90 nM | 300 nM | 1600 nM | 400 nM | Ac-AGYYWCNYWGLCPDQGTPGPEGGGK-NH2 (not fully specified (bridges); printed as Ac-AGYYWCNYWGLCPDQGTPGPEGGGK-NH2; cysteine pairing not given here; also: fluorescein-labelled form in anisotropy assays, place not given here, Fluorescein-labelled in anisotropy assays; immobilised in batch assays) [DX254] | Kd (human IgG1 [8]): 600 nM; Kd (human IgG1 [13]): 400 nM; Kd (human IgG2 [14]): 2000 nM
 |  |  |  |  |  |  |  |  | Ac-AGKYWCSFWGLQCKTGTPGPEGGGK(fluorescein)-NH2 (not fully specified (bridges); printed as Ac-AGKYWCSFWGLQCKTGTPGPEGGGK-NH2; cysteine pairing not given here, also called fluoresceinated DX250) [DX300] | Kd (human IgG3 [17]): 4100 nM
1900 nM | 3600 nM | 2700 nM | 3400 nM | 3200 nM | 100 nM | 60 nM | 5100 nM | 2900 nM | Ac-GDDDHCYWFREWFNSECPHGEPGPEGGGK-NH2 (not fully specified (bridges); printed as Ac-GDDDHCYWFREWFNSECPHGEPGPEGGGK-NH2; cysteine pairing not given here; also: fluorescein-labelled form in anisotropy assays, place not given here, Fluorescein-labelled in anisotropy assays; immobilised in batch/column assays) [DX252] | bdg % (of Total Load) (human IgG1 [18]): 37%; bdg % (of Total Load) (human IgG2 [19]): 37%; bdg % (of Total Load) (human IgG3 [20]): 44%; bdg % (of Total Load) (human IgG4 [21]): 14%; Kd (human IgG1 [22]): 2100 nM; Kd (human IgG3 [23]): 2300 nM; Kd (human IgG2 [24]): 3000 nM
